Results published in patent US20110117206A1, “PHOSPHOPEPTIDES AND USE OF THE SAME” (PLANT BIOSCIENCE LIMITED, priority 2008, published 2011).

Experiments:
[1] = Ca2+ binding isotherm (Ca ion selective electrode) fitted with semi-empirical binding model; details: 6.4 = high affinity dianionic phosphoseryl sites; listed as OPN peptide
Text: To model the chemical species in the OPN 1-149 nanocluster solution requires the calculation of Ca ion binding to the free peptide at any pH in the range 5.0-8.0. A semi-empirical model was used to describe the binding isotherms obtained previously for the β-casein 1-25 phosphopeptide in this pH range and the same model was adapted to fit the binding isotherm of OPN 1-149 measured at pH 7.0. The rescaled model was then used to predict binding at any other value of the pH. Binding of Ca ions to the β-casein 1-25 peptide is predominantly to 4 phosphorylated residues and, to a lesser extent, to 7 Glu residues and the C-terminus.
Fitting of the experimental isotherms was done to an equation of the form
where the summation is over all binding sites with Ca ion association constants Ka,i. The function Ni(pH) describes the number of sites of type i as a function of pH and φi is the degree of phosphorylation. It was assumed, that all the phosphorylated sites had the average degree of phosphorylation φ. The number of dianionic phosphoseryl sites at a given pH is given by
The binding behaviour of β-casein has shown that one Ca ion is bound much more strongly than the rest, so the model for binding to the phosphate dianionic groups allowed for two pKs and two Ca ion association constants. The phosphorylated sites have a reduced affinity for Ca ions when they become protonated and were treated as having the same low affinity as the carboxyl groups. […]
The Ca^2+ binding isotherm of peptides recovered from fraction F3a was determined by measuring the concentration of free Ca ions with a Ca ion selective electrode after successive small additions of a stock solution of 100 mM Ca(NO3)2 to a solution containing 25 mg ml^−1 of F3a, buffered to pH 7.0 with 20 mM P, and 50 mM KNO3. […] The calculated OPN 1-149 isotherm was obtained by a separate fitting of the single isotherm employing a model with two pKs and association constants but keeping as many as possible of the constants from the casein model.

[2] = SAXS and structural model of calcium phosphate nanoclusters; type: physicochemical; details: from modelling of the structure
Description: For the OPN 1-149 nanocluster, a description of the peptide segment distribution around the core was considered which is more explicit than that provided by the core-shell model. The simplest block copolymer micelle model has been used in which a corona is formed by Gaussian chains attached by one end to a uniform spherical core. The nanoclusters were prepared either on the SAXS station and measured immediately or were prepared 2 days previously to allow the system to come to equilibrium. The sample was then stored at room temperature and remeasured 5 months later during a later allocation of beamtime. […] The intensity averaged diffusion coefficient, D, was determined with a Malvern Zetasizer Nano instrument.
The results of the SAXS measurements on nanocluster sub-samples measured as a function of time after the addition of the urease are summarised in FIGS. 6a and 6b. […] According to the calculated degree of reaction of the phosphate centres and to the analysis of the correlation function given by the dynamic light scattering studies, the equilibrium state has a significant excess of free peptide, the scattering from which, although negligible at low q, has to be taken account of in modelling the SAXS at higher q. […]

OPN 1-149: N-terminal osteopontin phosphopeptide fragment from bovine milk, probably formed by plasmin; gel filtration fraction F3a
pKs fitted to the OPN 1-149 isotherm [1]: 6.4 | number of peptide chains on a nanocluster [2]: about 2618
